Reference: paper PMC6488028

Target: GenB1 (aminotransferase involved in C6'-amination, Micromonospora echinospora) (Micromonospora echinospora)
Experiment: crystal structure

## GenB1 (aminotransferase involved in C6'-amination, Micromonospora echinospora) (enzyme)
  stoichiometry N: 2
